Reference: the supplement of paper PMC11246515
± gives the standard deviation of the averaged measurements.

Test: total protein half-life in vivo (active degradation + dilution); higher = more stable protein
[1] = E. coli NCM3722 delta-clpP delta-lon delta-hslV, growth: N-lim chemostat, doubling time 6 h
[2] = E. coli NCM3722 delta-clpP, growth: N-lim chemostat, doubling time 6 h
[3] = E. coli NCM3722 delta-smpB, growth: N-lim chemostat, doubling time 6 h
[4] = wild type E. coli NCM3722, growth: C-lim chemostat, doubling time 3 h
[5] = wild type E. coli NCM3722, growth: C-lim chemostat, doubling time 6 h
[6] = wild type E. coli NCM3722, growth: C-lim chemostat, doubling time 12 h
[7] = wild type E. coli NCM3722, growth: N-lim chemostat, doubling time 6 h
[8] = wild type E. coli NCM3722, growth: P-lim chemostat, doubling time 12 h
[9] = wild type E. coli NCM3722, growth: N-lim chemostat, doubling time 12 h
[10] = E. coli NCM3722 delta-hslV, growth: N-lim chemostat, doubling time 6 h
[11] = E. coli NCM3722 delta-lon, growth: N-lim chemostat, doubling time 6 h
[12] = wild type E. coli NCM3722, growth: P-lim chemostat, doubling time 6 h

Sequence	total protein half-life in vivo [1]	total protein half-life in vivo [2]	total protein half-life in vivo [3]	total protein half-life in vivo [4]	total protein half-life in vivo [5]	total protein half-life in vivo [6]	total protein half-life in vivo [7]	total protein half-life in vivo [8]	total protein half-life in vivo [9]	total protein half-life in vivo [10]	total protein half-life in vivo [11]	total protein half-life in vivo [12]
MKLSRISAINWNKISDDKDLEVWNRLTSNFWLPEKVPLSNDIPAWQTLTVVEQQLTMRVFTGLTLLDTLQNVIGAPSLMPDALTPHEEAVLSNISFMEAVHARSYSSIFSTLCQTKDVDAAYAWSEENAPLQRKAQIIQQHYRGDDPLKKKIASVFLESFLFYSGFWLPMYFSSRGKLTNTADLIRLIIRDEAVHGYYIGYKYQKNMEKISLGQREELKSFAFDLLLELYDNELQYTDELYAETPWADDVKAFLCYNANKALMNLGYEPLFPAEMAEVNPAILAALSPNADENHDFFSGSGSSYVMGKAVETEDEDWNF	3.43 ± 1.1 h	3.14 ± 0.99 h	2.03 h	2.18 ± 0.23 h	3.25 ± 0.41 h	4.27 h	1.85 h	6.6 h				
MNATAAQTKSLEWLNRLRANPKIPLIVAGSAAVAVMVALILWAKAPDYRTLFSNLSDQDGGAIVSQLTQMNIPYRFSEASGAIEVPADKVHELRLRLAQQGLPKGGAVGFELLDQEKFGISQFSEQVNYQRALEGELSRTIETIGPVKGARVHLAMPKPSLFVREQKSPSASVTVNLLPGRALDEGQISAIVHLVSSAVAGLPPGNVTLVDQGGHLLTQSNTSGRDLNDAQLKYASDVEGRIQRRIEAILSPIVGNGNIHAQVTAQLDFASKEQTEEQYRPNGDESHAALRSRQLNESEQSGSGYPGGVPGALSNQPAPANNAPISTPPANQNNRQQQASTTSNSGPRSTQRNETSNYEVDRTIRHTKMNVGDVQRLSVAVVVNYKTLPDGKPLPLSNEQMKQIEDLTREAMGFSEKRGDSLNVVNSPFNSSDESGGELPFWQQQAFIDQLLAAGRWLLVLLVAWLLWRKAVRPQLTRRAEAMKAVQQQAQAREEVEDAVEVRLSKDEQLQQRRANQRLGAEVMSQRIREMSDNDPRVVALVIRQWINNDHE	6.55 h	6.44 h		2.6 ± 0.24 h	4.73 ± 0.44 h	6.98 ± 0.67 h						
MQRLFLLVAVMLLSGCLTAPPKEAARPTLMPRAQSYKDLTHLPAPTGKIFVSVYNIQDETGQFKPYPASNFSTAVPQSATAMLVTALKDSRWFIPLERQGLQNLLNERKIIRAAQENGTVAINNRIPLQSLTAANIMVEGSIIGYESNVKSGGVGARYFGIGADTQYQLDQIAVNLRVVNVSTGEILSSVNTSKTILSYEVQAGVFRFIDYQRLLEGEVGYTSNEPVMLCLMSAIETGVIFLINDGIDRGLWDLQNKAERQNDILVKYRHMSVPPES [P0AEA2]									4.39 h			
MELLVLVWRQYRWPFISVMALSLASAALGIGLIAFINQRLIETADTSLLVLPEFLGLLLLLMAVTLGSQLALTTLGHHFVYRLRSEFIKRILDTHVERIEQLGSASLLAGLTSDVRNITIAFVRLPELVQGIILTIGSAAYLWMLSGKMLLVTAIWMAITIWGGFVLVARVYKHMATLRETEDKLYTDFQTVLEGRKELTLNRERAEYVFNNLYIPDAQEYRHHIIRADTFHLSAVNWSNIMMLGAIGLVFWMANSLGWADTNVAATYSLTLLFLRTPLLSAVGALPTLLTAQVAFNKLNKFALAPFKAEFPRPQAFPNWQTLELRNVTFAYQDNAFSVGPINLTIKRGELLFLIGGNGSGKSTLAMLLTGLYQPQSGEILLDGKPVSGEQPEDYRKLFSAVFTDVWLFDQLLGPEGKPANPQLVEKWLAQLKMAHKLELSNGRIVNLKLSKGQKKRVALLLALAEERDIILLDEWAADQDPHFRREFYQVLLPLMQEMGKTIFAISHDDHYFIHADRLLEMRNGQLSELTGEERDAASRDAVARTA		5.55 ± 0.68 h	3.49 ± 2.1 h	3.11 ± 0.83 h		8.87 h	3.39 h	6.15 h	6.04 h	2.75 h		
MTIFDNYEVWFVIGSQHLYGPETLRQVTQHAEHVVNALNTEAKLPCKLVLKPLGTTPDEITAICRDANYDDRCAGLVVWLHTFSPAKMWINGLTMLNKPLLQFHTQFNAALPWDSIDMDFMNLNQTAHGGREFGFIGARMRQQHAVVTGHWQDKQAHERIGSWMRQAVSKQDTRHLKVCRFGDNMREVAVTDGDKVAAQIKFGFSVNTWAVGDLVQVVNSISDGDVNALVDEYESCYTMTPATQIHGKKRQNVLEAARIELGMKRFLEQGGFHAFTTTFEDLHGLKQLPGLAVQRLMQQGYGFAGEGDWKTAALLRIMKVMSTGLQGGTSFMEDYTYHFEKGNDLVLGSHMLEVCPSIAAEEKPILDVQHLGIGGKDDPARLIFNTQTGPAIVASLIDLGDRYRLLVNCIDTVKTPHSLPKLPVANALWKAQPDLPTASEAWILAGGAHHTVFSHALNLNDMRQFAEMHDIEITVIDNDTRLPAFKDALRWNEVYYGFRR	3.94 ± 0.26 h	3.03 ± 0.081 h	3.25 ± 0.17 h	2.84 ± 0.36 h	5.77 ± 0.19 h	9.63 ± 1.2 h	3.26 h	11.6 ± 1.2 h		3.07 h	3.405 ± 0.014 h	5.05 ± 0.14 h
MTNITLQKQHRTLWHFIPGLALSAVITGVALWGGSIPAVAGAGFSALTLAILLGMVLGNTIYPHIWKSCDGGVLFAKQYLLRLGIILYGFRLTFSQIADVGISGIIIDVLTLSSTFLLACFLGQKVFGLDKHTSWLIGAGSSICGAAAVLATEPVVKAEASKVTVAVATVVIFGTVAIFLYPAIYPLMSQWFSPETFGIYIGSTVHEVAQVVAAGHAISPDAENAAVISKMLRVMMLAPFLILLAARVKQLSGANSGEKSKITIPWFAILFIVVAIFNSFHLLPQSVVNMLVTLDTFLLAMAMAALGLTTHVSALKKAGAKPLLMALVLFAWLIVGGGAINYVIQSVIA		2.86 h										
MITIDGNGAVASVAFRTSEVIAIYPITPSSTMAEQADAWAGNGLKNVWGDTPRVVEMQSEAGAIATVHGALQTGALSTSFTSSQGLLLMIPTLYKLAGELTPFVLHVAARTVATHALSIFGDHSDVMAVRQTGCAMLCAANVQEAQDFALISQIATLKSRVPFIHFFDGFRTSHEINKIVPLADDTILDLMPQVEIDAHRARALNPEHPVIRGTSANPDTYFQSREATNPWYNAVYDHVEQAMNDFSAATGRQYQPFEYYGHPQAERVIILMGSAIGTCEEVVDELLTRGEKVGVLKVRLYRPFSAKHLLQALPGSVRSVAVLDRTKEPGAQAEPLYLDVMTALAEAFNNGERETLPRVIGGRYGLSSKEFGPDCVLAVFAELNAAKPKARFTVGIYDDVTNLSLPLPENTLPNSAKLEALFYGLGSDGSVSATKNNIKIIGNSTPWYAQGYFVYDSKKAGGLTVSHLRVSEQPIRSAYLISQADFVGCHQLQFIDKYQMAERLKPGGIFLLNTPYSADEVWSRLPQEVQAVLNQKKARFYVINAAKIARECGLAARINTVMQMAFFHLTQILPGDSALAELQGAIAKSYSSKGQDLVERNWQALALARESVEEVPLQPVNPHSANRPPVVSDAAPDFVKTVTAAMLAGLGDALPVSALPPDGTWPMGTTRWEKRNIAEEIPIWKEELCTQCNHCVAACPHSAIRAKVVPPEAMENAPASLHSLDVKSRDMRGQKYVLQVAPEDCTGCNLCVEVCPAKDRQNPEIKAINMMSRLEHVEEEKINYDFFLNLPEIDRSKLERIDIRTSQLITPLFEYSGACSGCGETPYIKLLTQLYGDRMLIANATGCSSIYGGNLPSTPYTTDANGRGPAWANSLFEDNAEFGLGFRLTVDQHRVRVLRLLDQFADKIPAELLTALKSDATPEVRREQVAALRQQLNDVAEAHELLRDADALVEKSIWLIGGDGWAYDIGFGGLDHVLSLTENVNILVLDTQCYSNTGGQASKATPLGAVTKFGEHGKRKARKDLGVSMMMYGHVYVAQISLGAQLNQTVKAIQEAEAYPGPSLIIAYSPCEEHGYDLALSHDQMRQLTATGFWPLYRFDPRRADEGKLPLALDSRPPSEAPEETLLHEQRFRRLNSQQPEVAEQLWKDAAADLQKRYDFLAQMAGKAEKSNTD	4.62 ± 0.54 h	3.16 ± 0.26 h	2.17 ± 0.18 h	2.14 ± 0.34 h	3.35 ± 0.38 h	5.06 ± 0.26 h	2.57 ± 0.12 h	6.3 ± 0.33 h	3.64 ± 0.31 h	2.72 ± 0.21 h	2.87 ± 0.075 h	3.77 ± 0.17 h
MFDIGVNLTSSQFAKDRDDVVACAFDAGVNGLLITGTNLRESQQAQKLARQYSSCWSTAGVHPHDSSQWQAATEEAIIELAAQPEVVAIGECGLDFNRNFSTPEEQERAFVAQLRIAADLNMPVFMHCRDAHERFMTLLEPWLDKLPGAVLHCFTGTREEMQACVAHGIYIGITGWVCDERRGLELRELLPLIPAEKLLIETDAPYLLPRDLTPKPSSRRNEPAHLPHILQRIAHWRGEDAAWLAATTDANVKTLFGIAF	5.07 ± 0.43 h	4.32 ± 0.31 h	3.97 ± 0.48 h	2.67 h	5.44 ± 0.34 h	8.95 ± 0.15 h	5.25 ± 1 h	9.01 ± 0.23 h	8.13 ± 1.8 h		5.25 ± 0.68 h	4.15 ± 0.38 h
MRTVKVFEEAWPLHTPFVIARGSRSEARVVVVELEEEGIKGTGECTPYPRYGESDASVMAQIMSVVPQLEKGLTREELQKILPAGAARNALDCALWDLAARRQQQSLADLIGITLPETVITAQTVVIGTPDQMANSASTLWQAGAKLLKVKLDNHLISERMVAIRTAVPDATLIVDANESWRAEGLAARCQLLADLGVAMLEQPLPAQDDAALENFIHPLPICADESCHTRSNLKALKGRYEMVNIKLDKTGGLTEALALATEARAQGFSLMLGCMLCTSRAISAALPLVPQVSFADLDGPTWLAVDVEPALQFTTGELHL			4.33 ± 0.052 h	2.73 ± 0.18 h	6.31 ± 1.1 h	9.313 ± 0.054 h	4.81 ± 0.22 h	12.119 ± 0.011 h	11.2 ± 2.8 h		5.93 ± 1.4 h	5.54 ± 0.5 h
